A word on the IC50: it is the concentration needed to halve the response being measured. The low end stands for greater potency in that assay, the high end for weaker potency in that assay.

The results in this text go back to patent US9266930.

Where two headings read alike, the source gives them in different places.

The target of one assay is HLA-B*3501 (human). Nature of the assay: competition with 125I probe peptide for purified HLA, gel filtration. A general note: SEC sorts molecules by how far they enter the pores of the column.
Assay [1] concerns the target HLA-A*0301 (human).
Assay [2] addresses HLA-A*1101 (human).
Assay [3] has as its target HLA-A*3101 (human).
The target in assay [4] is HLA-A*6801 (human).
Assay [5] addresses HLA-A*0301 (human). The source holds these as a separate data set.
Assay [6] has as its target HLA-A*1101 (Human).
The target of assay [7] is HLA-B*0702 (Human).
Another assay deals with HLA-A*0203 (human). Nature of the assay: competition with 125I probe peptide for purified HLA, gel filtration.
For a further assay, the target named is HLA-A*6802 (human). The assay is described as above.
Assay [8] addresses HLA-A*0301 (human). The source holds these as a separate data set.
The target of assay [9] is HLA-B*0702 (human). Put plainly: competition with 125I probe peptide for purified HLA, gel filtration.
Another assay concerns the target HLA-B*5401 (human). Described as above.
For assay [10], the target named is HLA-A*0301 (human). Nature of the assay: competition with 125I-labeled probe peptide for purified HLA, gel filtration.
Assay [11] addresses HLA-A*1101 (human). Described as above.
Assay [12] has as its target HLA-A*3101 (human). The assay is described as above.
The target in another assay is HLA-A*3301 (human). Described as above.
Assay [13] addresses HLA-A*6801 (human). The description is as above.
In assay [14] the target is HLA-DR1 (DRB1*0101) (human). Nature of the assay: competition with 125I-labeled probe peptide on purified HLA-DR, gel filtration.
The target in assay [15] is HLA-DR2w2β2 (DRB5*0101) (human). Described as above.
Assay [16] deals with HLA-DR4w15 (DRB1*0405) (human). Described as above.
The target of assay [17] is T1, HLA-DR4w4 (DRB1*0401) (human).
T1 chain 1: not shown
T1 chain 2: not shown
Described as above.

In assay [18] the target is HLA-DR5w11 (DRB1*1101) (human). Described as above.
Assay [19] has as its target HLA-A*0301 (human). The source holds these as a separate data set.
The target of assay [20] is T2, HLA-DR1 (DRB1*0101) (human).
T2 chain 1: not shown
T2 chain 2: not shown

The target of assay [21] is T3, HLA-DR3 (DRB1*0301) (human).
T3 chain 1: not shown
T3 chain 2: not shown

In assay [22] the target is T4, HLA-DR6w19 (DRB1*1302) (human).
T4 chain 1: not shown
T4 chain 2: not shown

Consider LPYGRTNL (modifications not checked) [19.0051], for which the IC50 with HLA-B*3501 (human) is greater than 30000 nM.

On to NLPNDKSDR (modifications not checked) [… (P. falciparum SSP2, position 406, 9 amino acids)], for which the binding affinity ratio (relative to standard peptide) with HLA-A*0301 (human) [1] was 0.0005; in the assay with HLA-A*1101 (human) [2], 0.0002.

For the molecule NANANNAVK (modifications not checked) [… (P. falciparum CSP, position 335)], the binding affinity ratio (IC50 of standard peptide / IC50 of test peptide) is 0.0006 with HLA-A*3101 (human) [3] and 0.021 with HLA-A*6801 (human) [4].

For the molecule GSGEPLIDVH (modifications not checked) [… (P. falciparum EXP, position 42)], the binding affinity ratio (IC50 of standard peptide / IC50 of test peptide) with HLA-A*0301 (human) [5] was determined as 0.0005; in the assay with HLA-A*1101 (Human) [6], 0.0002.

For the molecule VPGAATPYA (modifications not checked) [… (P. falciparum SSP2, position 522)], the binding affinity ratio (IC50 of standard peptide / IC50 of test peptide) with HLA-B*0702 (Human) [7] is 0.0001.

For ILSVSSFLFV (modifications not checked) [1167.18], the IC50 stood at 19 nM with HLA-A*0203 (human) and 2100 nM in the assay with HLA-A*6802 (human).

In the case of LALFFIIFNK (modifications not checked) [… (P. falciparum EXP, position 9)], in the assay with HLA-A*0301 (human) [8], the binding affinity ratio (IC50 of standard peptide / IC50 of test peptide) was 0.014.

Regarding TPYAGEPAPF (modifications not checked) [1167.61], the IC50 in the assay with HLA-B*0702 (human) [9] turned out to be 31 nM; in the assay with HLA-B*5401 (human) it was 25000 nM.

With LALFFIIFNK (modifications not checked) [… (P. falciparum EXP, position 9, 10 amino acids)], the binding affinity ratio (relative to standard peptide) with HLA-A*0301 (human) [10] was determined as 0.014; in the assay with HLA-A*1101 (human) [11], 0.053; with HLA-A*3101 (human) [12], 0.0072; with HLA-A*3301 (human) it was 0.0076; in the assay with HLA-A*6801 (human) [13], 0.0039.

On to SCGVWDEWSPCSVTC (modifications not checked) […], for which the binding affinity ratio (IC50 standard peptide / IC50 test peptide) in assay [14] is 0.0001; in assay [15], -0.0005; in [16] it was -0.0009; in assay [17], -0.0009; in [18], -0.0002.

Regarding IAGGLALLA (modifications not checked) [… (P. falciparum SSP2 position 504, 9-mer, A3 motif peptide)], the binding affinity ratio (IC50 of standard peptide / IC50 of test peptide) with HLA-A*0301 (human) [19] worked out at 0.0002.

With KCNLYADSAWENVKN (modifications not checked) [35.0172 … (Pf SSP2 211)], the IC50 in assay [20] was 23400 nM; in assay [21], 857 nM; in assay [22] it was 11100 nM.
